The Km is the concentration of substrate that gives half-maximal velocity. Broadly, the kcat is the maximal rate divided by the concentration of active sites.

Substrate in data set [1]: CCCCO
Description: purified protein. Conditions: NADP+ co-substrate, CAPS pH 11.6, 1 mM DTT, 0.1 mM FeCl2, 80 °C, anaerobic, aerobically purified enzyme. Type of data set: biochemical, Pseudothermotoga hypogea.

Substrate in data set [2]: CCO
Description: purified protein. Conditions: 330 µM NAD+, 8 µM PMS, 330 µM NBT, 0.1% gelatin, 100 mM Tris-HCl pH 8.6, ~22 °C.

B1: Th ADH (Th ADH_ae) (Pseudothermotoga hypogea DSM 11164 = NBRC 106472) (protein)
chain: MENFVFHNPTKLIFGKGTIPKIGEEIKSFGIKKVLMLYGGGSIKKNGVYDQVVESLKRNGIEWVEVSGVKPNPVLSKVHEAIEVCRKENVEAVLGVGGGSVIDSAKAIAAGVLYEGDIWDAFAGKHKINNALPVFAILTISATGTEMNGNAVVTNEKTQEKWAISAKCLYPRVSIIDPTAQFSLPKEQTVYGAVDAIAHTLEYYFDGSDSDIQNQISESIIRSIMKSTEVLIDNPQDYEARANFAWCATIALNGLTAAGRKGGDWSCHKIEHSLSALYDIAHGAGLAIVFPAWMRYVYKQKPQQFERFAKHVFSIDAVGEEAILKGIDAFKAWLRKVGAPVSLRDVGIPAQDIDRIVENVMKQGPSFGVLKKLGKEDVKQILLIASQ
notes: ORF in pET-33b, N-terminal His6 tag (kept), E. coli BL21(DE3) Rosetta grown anaerobically, purified aerobically; ~42 kDa
As to B1, in “purified protein [1]”, the Km is given as 34.1 ± 0.6 mM and the kcat came to 3.943 ± 0.0867 s⁻¹.

B2: Sc ADH (Saccharomyces cerevisiae S288C) (protein)
chain: SIPETQKGVIFYESHGKLEYKDIPVPKPKANELLINVKYSGVCHTDLHAWHGDWPLPVKLPLVGGHEGAGVVVGMGENVKGWKIGDYAGIKWLNGSCMACEYCELGNESNCPHADLSGYTHDGSFQQYATADAVQAAHIPQGTDLAQVAPILCAGITVYKALKSANLMAGHWVAISGAAGGLGSLAVQYAKAMGYRVLGIDGGEGKEELFRSIGGEVFIDFTKEKDIVGAVLKATDGGAHGVINVSVSEAAIEASTRYVRANGTTVLVGMPAGAKCCSDVFNQVVKSISIVGSYVGNRADTREALDFFARGLVKSPIKVVGLSTLPEIYEKMEKGQIVGRYVVDTSK
As to B2, in the data set “purified protein [2]”, the Michaelis constant (Km) is recorded as 22.7 ± 2.9 mM and the kcat worked out at 20.5 ± 2.37 s⁻¹.

Values taken from article PMC5821843, “Development of a high-throughput assay for rapid screening of butanologenic strains” (Scientific Reports, 2018).
